Test results reported in patent publication US20200264182A1, “METHOD FOR DETECTING PROSTATE CANCER” (J-OIL MILLS, INC., priority 2017, published 2020).
Each block holds one substance with its values, some of them ahead of it.

Assays:
[1] = biological target: serum fucosylated PSA (prostate specific antigen) (human) (UniProt P07288); assay: sandwich ELISA, anti-PSA antibody capture, biotin-lectin detection, lectin reaction pH 9.6; serum of Prostate cancer 4
[2] = biological target: serum fucosylated PSA (prostate specific antigen) (human) (UniProt P07288); assay: sandwich ELISA, anti-PSA antibody capture, biotin-lectin detection, lectin reaction pH 7.4; serum of Prostate cancer 4
[3] = biological target: serum fucosylated PSA (prostate specific antigen) (human) (UniProt P07288); assay: sandwich ELISA, anti-PSA antibody capture, biotin-lectin detection, lectin reaction pH 9.6; serum of Healthy 1
[4] = biological target: serum fucosylated PSA (prostate specific antigen) (human) (UniProt P07288); assay: sandwich ELISA, anti-PSA antibody capture, biotin-lectin detection, lectin reaction pH 7.4; serum of Healthy 1

NSL reaction value [1]: 283 U/mL
NSL reaction value [2]: 400 U/mL
NSL reaction value [3]: 42.3 U/mL
NSL reaction value [4]: 178 U/mL
Substance: Naematoloma sublateritium lectin (NSL), biotin-labeled

PhoSL peptide reaction value [1]: 234 U/mL
PhoSL peptide reaction value [2]: 102 U/mL
PhoSL peptide reaction value [4]: 1 U/mL
Substance: Pholiota squarrosa lectin peptide (PhoSL peptide), biotin-labeled

SRL reaction value [1]: 234 U/mL
SRL reaction value [2]: 146 U/mL
SRL reaction value [3]: 16.8 U/mL
SRL reaction value [4]: 20 U/mL
Substance: Stropharia rugosoannulata lectin (SRL), biotin-labeled

AML reaction value [1]: 151 U/mL
AML reaction value [2]: 141 U/mL
AML reaction value [4]: 21.2 U/mL
Substance: Amanita muscaria lectin (AML), biotin-labeled
